Assay in all cases: MST
Experiment [1] addresses T1, FoTO1(ΔC), FoTO1 with the C-terminal α-helix deleted, fused to N-terminal mTurquoise2 (Taxus media).
Experiment [2] concerns the target T2, FoTO1 (facilitator of taxane oxidation), fused to N-terminal mTurquoise2 (Taxus media).
The target of experiment [3] is T1, FoTO1(ΔC), FoTO1 with the C-terminal …. The source holds these as a separate data set.
Experiment [4] addresses T2, FoTO1 (facilitator of taxane …). The source holds these as a separate data set.

Where two headings read alike, the source gives them in different places.

B1: taxadiene synthase 2 (TDS2), soluble portion, 60 N-terminal amino acids removed (enzyme)
chain: SGSPTKLATENANAVAESNLIPRLSANYHGDLWHHGVIQTLQTPYQESSSYQERAEELIVKIKDMFKAVEEGAISPSAYDTAWVARVPDGSEKPRFPQALNWLLHNQLQDGSWGLESHFMLSDRLLSTLNSVISLLVWKTGQQQVEQGTLFITENLKLLEGEDELPPDFEIIFPALLQKAKALGMSLPDHDLPFIKSLSVAREARLASYTDNNIPASMLNALEGLEEVIDWDKIMRFQMPCLYSIDLLERLSLVDNIEHLGIGRHFKQEIKVALDYVYRYWSERGIGLGRDSLIPDLNTTALGLRTLRAHGYNVSSEVLNNFKDENGRFFSSLGQTHVELRSMVNLLRASDLAFPDEPLMDDAKIFAEAYLRDALATRISTNTKLFKEIDYAVEYPWHMSIPRLEARSYIDVYDDDYTWQNKTLYRMSNLSNAYCLELAKLDFNIVQSLHQEELKLLTRWWKESGMADINFTRHRVAEVYFSSATFEPEYSSTRIAFTKIGCLQVLFDDMADIFATLDELRDFTEGVKRWDTSLIHKLPDCMQTCFRVWFNLMEEVNNDVSNVQGRDMLNHIRKPWELYFNCYVQEREWLDAGYIPTLEEYLKTYSISVGLGPCTLQPILLMGDIVKDDVVEKVHYPSNLFELVSLSWRLTNDTKTYQAEKARGQQASGIACYMKDNPGSTEEDAIKYICGVVDRALKEACFEYFKPADDVPMSCKSFIFNLRLCVQIFYKFIDGYGIANEEIKDYIRKVYIEPIQV
modifications: RED-tris-NTA dye on the His tag (NanoTemper His-Tag labelling kit)
For B1, the Kd was over 10000 nM in experiment [1] and 610 nM in experiment [2].

B2: taxadiene 5α-hydroxylase (T5αH), soluble portion, 47 N-terminal amino acids removed (enzyme)
chain: SSLKLPPGKLGIPFIGESFIFLRALRSNSLEQFFDERVKKFGLVFKTSLIGHPTVVLCGPAGNRLILSNEEKLVQMSWPAQFMKLMGENSVATRRGEDHIVMRSALAGFFGPGALQSYIGKMNTEIQSHINEKWKGKDEVNVLPLVRELVFNISAILFFNIYDKQEQDRLHKLLETILVGSFALPIDLPGFGFHRALQGRAKLNKIMLSLIKKRKEDLQSGSATATQDLLSVLLTFRDDKGTPLTNDEILDNFSSLLHASYDTTTSPMALIFKLLSSNPECYQKVVQEQLEILSNKEEGEEITWKDLKAMKYTWQVAQETLRMFPPVFGTFRKAITDIQYDGYTIPKGWKLLWTTYSTHPKDLYFNEPEKFMPSRFDQEGKHVAPYTFLPFGGGQRSCVGWEFSKMEILLFVHHFVKTFSSYTPVDPDEKISGDPLPPLPSKGFSIKLFPRP
modifications: RED-tris-NTA dye on the His tag (NanoTemper His-Tag labelling kit)
With B2, the Kd in experiment [3] is over 10000 nM; in experiment [4], 470 nM.

Source of the values: publication PMC12240809 (2025).
